Target: cynomolgus CD73 expressed at the cell surface (cynomolgus)
Assay: flow cytometry titration on cynomolgus-CD73-expressing cell line

## antibody AD2 (Biolegend Corp, product ref. 344004)
  EC50: 1.15 µg/mL
  fold higher concentration (EC50) than 7H10: 4 fold
